# In patent US11833164B2, “Methods of treating Fabry disease in patients having a mutation in the GLA gene” (Amicus Therapeutics, Inc., priority 2019, dated 2023):
# Substitutions are numbered along the chain they refer to. Names may count otherwise.
# B1: D161Y (protein)
# chain: MQLRNPELHLGCALALRFLALVSWDIPGARALDNGLARTPTMGWLHWERFMCNLDCQEEPDSCISEKLFMEMAELMVSEGWKDAGYEYLCIDDCWMAPQRDSEGRLQADPQRFPHGIRQLANYVHSKGLKLGIYADVGNKTCAGFPGSFGYYDIDAQTFAYWGVDLLKFDGCYCDSLENLADGYKHMSLALNRTGRSIVYSCEWPLYMWPFQKPNYTEIRQYCNHWRNFADIDDSWKSIKSILDWTSFNQERIVDVAGPGGWNDPDMLVIGNFGLSWNQQVTQMALWAIMAAPLFMSNDLRHISPQAKALLQDKDVIAINQDPLGKQGYQLRQGDNFEVWERPLSGLAWAVAMINRQEIGGPRSYTIAVASLGKGVACNPACFITQLLPVKRKLGFYEWTSRLRSHINPTGTVLLQLENTMQMSLKDLL
# B2: V164A (protein)
# chain: B1 chain with Y161D, V164A
# B3: Y173C (protein)
# chain: B1 chain with Y161D, Y173C
# B4: W162S (protein)
# chain: B1 chain with Y161D, W162S
# B5: G171V (protein)
# chain: B1 chain with Y161D, G171V
# B6: L166M (protein)
# chain: B1 chain with Y161D, L166M
# B7: Y173F (protein)
# chain: B1 chain with Y161D, Y173F
# B8: L167I (protein)
# chain: B1 chain with Y161D, L167I
# B9: V164I (protein)
# chain: B1 chain with Y161D, V164I
# B10: D165E (protein)
# chain: B1 chain with Y161D, D165E
# B11: V164L (protein)
# chain: B1 chain with Y161D, V164L
# B12: Y173S (protein)
# chain: B1 chain with Y161D, Y173S
# B13: D165A (protein)
# chain: B1 chain with Y161D, D165A
# B14: F169Y (protein)
# chain: B1 chain with Y161D, F169Y
# B15: G171A (protein)
# chain: B1 chain with Y161D, G171A
# B16: F169C (protein)
# chain: B1 chain with Y161D, F169C
# B17: L166Q (protein)
# chain: B1 chain with Y161D, L166Q
# B18: D175G (protein)
# chain: B1 chain with Y161D, D175G
# B19: F169L (protein)
# chain: B1 chain with Y161D, F169L
# B20: Y173H (protein)
# chain: B1 chain with Y161D, Y173H
# B21: F169V (protein)
# chain: B1 chain with Y161D, F169V
# Tested on: mutant form of α-Gal A expressed in HEK-293 cells
# Assay: HEK assay (GLP HEK / Migalastat Amenability Assay): α-Gal A activity in lysates of transiently transfected HEK-293 cells incubated with or without 10 μM migalastat
# Type: cell-based, human
# Conditions: for Absolute increase (% WT): 10 μM migalastat versus baseline; for Relative increase: 10 μM migalastat α-Gal A activity relative to baseline; for 10 μM migalastat α-Gal A activity (% WT): 5 days; for 10 μM migalastat α-Gal A activity (% WT) / Baseline α-Gal A activity (% WT): percentage of baseline wild-type α-Gal A activity; for 10 μM migalastat α-Gal A activity (% WT) / Baseline α-Gal A activity (% WT) / Baseline α-Gal A activity / 10 μM migalastat α-Gal A activity: mean ± SEM; for Baseline α-Gal A activity (% WT): absence of migalastat; for Baseline α-Gal A activity / 10 μM migalastat α-Gal A activity: lysates of HEK-293 cells transfected with the mutant form; for Baseline α-Gal A activity: incubated 5 days in the absence of migalastat; for 10 μM migalastat α-Gal A activity: incubated 5 days with 10 μM migalastat
# Summary of the method: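 Activity reported as 4-MU released (nmol/mg/hr), mean±SEM, from lysates of transiently transfected HEK-293 cells expressing mutant α-Gal A, cultured with or without 10 μM migalastat.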
Molecule,Absolute increase (% WT),Relative increase,10 μM migalastat α-Gal A activity (% WT),Baseline α-Gal A activity (% WT),Baseline α-Gal A activity [nmol/mg/h],10 μM migalastat α-Gal A activity [nmol/mg/h]
B1,32.1,1.9,63.1 ± 4.6,31 ± 2.5,11060 ± 1571,21231 ± 2136
B2,7.5,1.3,32 ± 2.2,24.5 ± 1.8,6491 ± 691,8468 ± 832
B3,29.3,1.6,80.5 ± 3.3,51.1 ± 3.6,17669 ± 1240,27924 ± 1225
B4,9.2,4.6,11.8 ± 0.8,2.6 ± 0.2,653 ± 38,3019 ± 210
B5,6.4,3.6,9.2 ± 0.9,2.8 ± 0.2,856 ± 62,3111 ± 411
B6,48.8,1.8,104 ± 7.3,55.2 ± 4.5,15603 ± 1630,27922 ± 1578
B7,21.2,1.3,97.7 ± 4.7,76.5 ± 4.2,26479 ± 1523,33158 ± 657
B8,26.1,1.6,72.9 ± 2.7,46.8 ± 2.2,14763 ± 942,22948 ± 1321
B9,41.9,1.9,87.1 ± 8.2,45.1 ± 3.4,12164 ± 1271,23219 ± 2640
B10,18.4,4.4,23.8 ± 1.6,5.4 ± 0.2,1442 ± 43,6279 ± 288
B11,35.0,1.7,86.2 ± 5.2,51.2 ± 3.8,22055 ± 1619,36486 ± 1952
B12,14.8,1.2,76.2 ± 3.3,61.4 ± 3.3,21751 ± 1625,26270 ± 994
B13,4.4,5.2,5.4 ± 0.3,1 ± 0.1,271 ± 30,1397 ± 86
B14,30.2,1.6,75.5 ± 3.6,45.3 ± 2.8,14358 ± 1768,23459 ± 2391
B15,26.4,1.4,84 ± 5.7,57.6 ± 2.8,19081 ± 1801,27514 ± 2486
B16,26.9,2.4,44.9 ± 2.3,18.1 ± 2,6861 ± 977,16396 ± 1516
B17,29.2,2.6,47.6 ± 1.9,18.4 ± 1.2,5656 ± 325,14720 ± 616
B18,18.1,1.2,92.8 ± 6.2,74.7 ± 6.7,23065 ± 2315,28273 ± 1968
B19,34.5,1.7,82.3 ± 3.2,47.8 ± 2.9,15588 ± 1463,26527 ± 1806
B20,18.3,1.3,80.2 ± 4.6,61.9 ± 3.4,21234 ± 879,27455 ± 1147
B21,42.8,5.6,53 ± 2.1,10.2 ± 0.9,2870 ± 239,16145 ± 1680
